Results as given in doi:10.1101/2022.03.11.483953, “Structure and regulation of the myotonic dystrophy kinase-related Cdc42-binding kinase” (bioRxiv, 2022).

T1: FITC-labeled CRIB peptide of C. elegans MRCK1 (residues 1543-1572) (C. elegans, UniProt O01583 1543-1572, fluorescein (FITC) label, position not stated)
T1 construct: MRCK1, C. elegans, CRIB motif, residues 1543-1572; also called CRIB motif peptide; fluorescein-labeled peptide
T1 peptide (looked up): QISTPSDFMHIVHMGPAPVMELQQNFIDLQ


What was measured:
[1] = target: T1, FITC-labeled CRIB peptide of C. elegans …; experiment: fluorescence polarisation; fluorescence anisotropy; Cdc42^2-178 loaded with GMPPNP titrated into 100 nM fluorescein-labeled peptide; 20 °C, 20 mM Tris pH 8.0, 100 mM NaCl, 1 mM TCEP; one-site binding model; conditions: both partners purified
[2] = target: the molecule itself; experiment: rotary shadowing electron microscopy; samples at 50 μg/ml in 100 mM ammonium acetate, 30% (v/v) glycerol, pH 7.4, sprayed on mica, coated with platinum and carbon

| Binder | fold stronger than Cdc42 bound to GDP [1] | stoichiometry N [2] |
| --- | --- | --- |
| Cdc42^2-178 (C-terminally truncated Cdc42 lacking its geranylgeranylation motif) (domain or fragment, Cdc42, residues 2-178, C-terminally truncated; Loaded with GDP or with GMPPNP (Dbs exchange factor, then size exclusion) before the titration; the two loaded states are told apart by the assay; The species may be human instead (P60953); also called Cdc42 (residues 2-178); source: E. coli, purified (GST beads, TEV cleavage, SD75 size exclusion); not shown: GST, N-terminal, cleaved) not shown | 5 fold |  |
| C. elegans MRCK1, full length (MRCK1^1-1592) (enzyme, UniProt O01583 1-1592, looked up, source: baculovirus-infected Sf9 insect cells, purified (HisTrap, TEV cleavage, HiTrap Q); not shown: His10, N-terminal, cleaved; StrepII, N-terminal, cleaved) MAEPPPDDSAPVRLKTLENIYMDGPSKKPEALSFETLIDSLICLYDECCNSTLRKEKCIAEFVESVKTVISKAKKLRLSRDDFEVLKVIGKGAFGEVAVVRMRGVGEIYAMKILNKWEMVKRAETACFREERDVLVYGDRRWITNLHYAFQDEKNLYFVMDYYIGGDMLTLLSKFVDHIPESMAKFYIAEMVLAIDSLHRLGYVHRDVKPDNVLLDMQGHIRLADFGSCLRILADGSVASNVAVGTPDYISPEILRAMEDGRGRYGKECDWWSLGICMYEMLYGTTPFYSERLVDTYGKIMSHQDMLDFPDDEIDWVVSEEAKDLIRQLICSSDVRFGRNGLSDFQLHPFFEGIDWNTIRDSNPPYVPEVSSPEDTSNFDVDVCEDDFTPCLQETQPPRVLAAFTGNHLPFVGFSYTHGSLLSDARSLTDEIRAIAQRCQGDAELMEKSVDGFMVELENEKAELVQKLKEAQTIIAQHVAENPRSEEDRNYESTIAQLKDEIQILNKRLEDEALAQQQQKPKDEIVAESEKKLKELKERNKQLVMEKSEIQRELDNINDHLDQVLVEKATVVQQRDDMQAELADVGDSLLTEKDSVKRLQDEAEKAKKQVADFEEKLKEIETEKIALIKKQEEVTIEARKSVETDDHLSEEVVAAKNTIASLQATNEERETEIKKLKQRMDEERASHTAQSEQEMKQLEAHYERAQKMLQDNVEQMNVENRGLRDEIEKLSQQMAALPRGGLNEQQLHEIFNWVSEEKATREEMENLTRKITGEVESLKNNSPLTTSNYIQNTPSGWGSRRMNNVARKDGLDLQRQLQAEIDAKLKLKAELKNSQEQYLTSAARLDDTEKRMASLMREVAMLKQQKNIENSSDSAFSSTMGRGDLMISMNNDYEMSNSSLMRQEMISRQSTPSYENAILLHDHQVPKRVDDLRYKQKPMKTASGIFSPVSISAMERGHNFERMKIKTPTKCGHCTSILIGLDRQGLFCQSCQYACHVSCAERVSQSCPVPEEERRPLGIDPTRGVGTAYEGLVKTPRAGGVRKGWQTAYVVVCDFKLYLYDCTVDRQNKMQDVKNEIRLVLDMRDPDFTVCGVSEADVIHAQKGDIPKIFRVTTTQILNSSSEYSSSSKFYTLFMAETEEEKRKWVVALSELKTLLRRSKLADRKAFLVKEVFDVTTLPSIRVAQCCAIIDRSKIVIGFSDHGLYCIEISRQLLIPVGGEKENKQRCVETVEYDEAEQLLMMIVGPAKDRHVRIVPSAALDGRDLKWIKVNDTKGCHLLAVGTNNPGGRAGFFAVAFKKSVTIFQIDRSEKRHKKWKDLAMPGTPQSIAIFNGRLYVGFSHSFRSWSLVGVDSSPVGSGDASGAVLQHISLVNMEDTSLQFLNQQTSYEAKLIVNVPGSPDEYLLVFNMIGLYVNEMGRRSRLPEVMFPTQAKYFAYHEPYLCVFSENEVDIFNVTLAEWVQTINLRSAKPLSGDGILSTCLCNDSPIFVLLQNVLQDQDSIEVPVNLASGSTDGRKVTRRKFTFRTIGKDDRSASERRSHIQISTPSDFMHIVHMGPAPVMELQQNFIDLQSNHSHTSSDKDSLNRSVNND |  | 2 |
